# According to KR20230086338A (dated 2023):
# T1: 재조합 인간 MUC1-C 항원 (MUC1-C ECD) (human, UniProt P15941 1098-1158)
# T1 construct: also called 재조합 MUC1-C 단백질; 재조합 hMUC1-항원
# T1 sequence: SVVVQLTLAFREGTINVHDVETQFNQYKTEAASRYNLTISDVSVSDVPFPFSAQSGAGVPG
# B1: KC-001 항체 (인간 MUC1-C 항체 KC-001) (antibody, V domains shown)
# VH: QVQLVESGGGLVQPGGSLRLSCAASGFTFSNYGMSWVRQAPGKGLEWVSSISNGGGSTSYADSVKGRFTISRDNSKNTLYLQMNSLRAEDTAVYYCAGWGIRGVTRPYYYYGMDVWGQGTTITVSS
# VL: DIVMTQTPLSLSVTPGQPASISCKSSQSLLHSDRKTYLYWYLQKPGQSPQLLIYEASNRFSGVPDRFSGGGSGTDFTLKISRVEADDVGIYYCMQGLHPIT
# notes: Human antibody from a naive scFv phage library; also called 항-MUC1 항체
# Molecular target: T1, 재조합 인간 MUC1-C 항원 (MUC1-C ECD)
# Assay: BLI (Octet RED 96); MUC1-C antigen immobilised on AR2G sensor at 5 μg/mL, antibody 0.626-20 nM, 1:2 binding model
binder,measurement,value
B1,Kd,6.49 nM
